Results on 2 molecules are retold here after patent US20040171537A1 (HOSPITAL FOR SICK CHILDREN, published 2004).

Assay [1] deals with T1, c-Cbl (endogenous, Jurkat T-cell lysate) (human, UniProt P22681 1-906, tyrosine phosphorylated after anti-CD3 stimulation (sites not given)).
T1 construct: also called 120 kDa phosphoprotein
The experiment in a line: GST pull-down from unstimulated or anti-CD3 stimulated Jurkat lysates, anti-c-Cbl immunoblot. How it is done:
Full-length MARS and MARS-v coding regions were fused in-frame to glutathione-S-transferase, in PGEX4T1. Recombinant GST fusion proteins were expressed in bacteria and purified on glutathione sepharose (GS) (Pharmacia). Jurkat T-cells (20×10⁶) were either left unstimulated (−) or stimulated with anti-CD3 (+); (anti-human CD3ε, clone UCGT1, Pharmingen) for 2 minutes. Cells were lysed in 1% NP-40 lysis buffer containing 1 mM sodium orthovanadate and complete protease inhibitors (Roche). Cell lysates were incubated with 4 μg of GS bound GST fusion proteins for 90 minutes at 4° C. and washed 4 times for 10 minutes with 0.1% NP-40 lysis buffer. Bound proteins were eluted by boiling in 2×SDS sample buffer and were resolved by SDS-PAGE on 10% polyacrylamide gels. Proteins were subsequently transferred to PVDF membrane (NEN) and blotted with anti-phosphotyrosine antibody (clone 4G10, UBI; top panel, FIG. 13). Membranes were stripped and reprobed with anti-c-Cbl antibody (Santa Cruz; middle panel, FIG. 13), and subsequently stained with Coomassie blue dye to check for equal loading of the respective fusions (bottom panel, FIG. 13).
(In general: In western blotting, separated proteins are transferred to a membrane and probed.)

The target in assay [2] is T1, c-Cbl (endogenous, Jurkat T-cell lysate). Kind of assay: GST pull-down from Jurkat T-cell lysates, anti-c-Cbl immunoblot.

B1: GST fusion of human MARS-v (MARS short isoform, splice variant) (other, not shown: a dimerising Fc or GST; large carriers; small tags and cut ends)
chain: MGSLPSRRKSLPSPSLSSSVQGQGPVTMEAERSKATAVALGSFPAGGPAELSLRLGEPLTIVSEDGDWWTVLSEVSGREYNIPSVHVAKVSHGWLYEGLSREKAEELLLLPGNPGGAFLIRESQTRRGSYSLSVRLSRPASWDRIRHYRIHCLDNGWLYISPRLTFPSLQALVDHYSEGWPAPWQGYTPTCDCAEDTTQLERAGQLPPVF
modifications: N-terminal GST fusion from pGEX-4T1; GST letters are not given and are left out
notes: The full-length MARS-v coding region (210 amino acids) was fused in-frame to GST; also called MARS-variant; MARS splice variant
Regarding B1, the binding result in assay [1] is on record as “no binding (tested: 4 µg of GS bound GST fusion proteins)”.

B2: GST-MARS delta-C (deletion of the carboxy-terminal 70 amino acids) (other, not shown: a dimerising Fc or GST; large carriers; small tags and cut ends)
chain: MGSLSSRGKTSSPSPSSSGPDQEPVSMQPERHKVTAVALGSFPAGEQARLSLRLGEPLTIISEDGDWWTVQSEVSGREYHMPSVYVAKVAHGWLYEGLSREKAEELLLLPGNPGGAFLIRESQTRRGCYSLSVRLSRPASWDRIRHYRIQRLDNGWLYISPRLTFPSLHALVEHYSELADGICCPLREP
modifications: N-terminal GST fusion from pGEX-4T1; GST letters are not given and are left out
notes: Residues 1-189 are worked out from the 259-residue entry; also called MARS AC mutant; C-terminal deletion mutant of MARS
Regarding B2, the binding result in assay [2] is listed as “no binding”.
